{"source": "paper PMC2132754", "target": "recombinant mouse α-catenin with a COOH-terminal histidine tag (mouse) (UniProt P26231)", "sequence (P26231 whole entry, the tested form may be a part)": "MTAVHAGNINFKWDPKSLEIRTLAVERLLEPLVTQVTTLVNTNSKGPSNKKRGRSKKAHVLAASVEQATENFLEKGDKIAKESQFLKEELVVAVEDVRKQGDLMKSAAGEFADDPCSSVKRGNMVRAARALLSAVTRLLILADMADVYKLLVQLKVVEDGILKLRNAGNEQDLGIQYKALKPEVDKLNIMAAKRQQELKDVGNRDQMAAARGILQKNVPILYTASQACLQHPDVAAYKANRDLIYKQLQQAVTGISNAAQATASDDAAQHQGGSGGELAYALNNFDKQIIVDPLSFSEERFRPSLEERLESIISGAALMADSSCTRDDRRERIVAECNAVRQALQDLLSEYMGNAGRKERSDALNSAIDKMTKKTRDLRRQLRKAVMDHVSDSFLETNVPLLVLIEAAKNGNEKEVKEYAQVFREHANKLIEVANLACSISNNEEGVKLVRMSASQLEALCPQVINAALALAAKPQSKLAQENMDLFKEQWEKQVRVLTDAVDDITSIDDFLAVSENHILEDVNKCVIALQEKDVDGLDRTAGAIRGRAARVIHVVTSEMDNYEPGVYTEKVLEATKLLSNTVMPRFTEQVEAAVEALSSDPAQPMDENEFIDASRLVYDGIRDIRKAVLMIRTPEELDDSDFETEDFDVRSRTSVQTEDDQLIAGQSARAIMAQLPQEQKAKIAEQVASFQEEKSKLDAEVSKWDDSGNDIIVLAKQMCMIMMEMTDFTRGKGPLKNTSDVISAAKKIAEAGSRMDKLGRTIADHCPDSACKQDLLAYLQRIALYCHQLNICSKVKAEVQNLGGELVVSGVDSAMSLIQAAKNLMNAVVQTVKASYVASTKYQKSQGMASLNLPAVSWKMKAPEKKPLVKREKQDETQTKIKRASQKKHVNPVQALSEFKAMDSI", "assay": "co-sedimentation", "data": [{"substance": "vinculin 90-kD head fragment (V8 protease fragment of chicken gizzard vinculin) (domain or fragment)", "values": [{"measurement": "stoichiometry N", "value": 1}]}]}
